According to patent US20200199204A1:

Assays:
Assay in all cases: cell-based or functional assay
[1] = biological target: HIV-1 Env of AC10.29 (HIV-1)
[2] = biological target: HIV-1 Env of Q769.d22 (HIV-1)
[3] = biological target: HIV-1 Env of RW020.2 (HIV-1)
[4] = biological target: HIV-1 Env of Q168.a2 (HIV-1)
[5] = biological target: HIV-1 Env of KER2018.11 (HIV-1)
[6] = biological target: HIV-1 Env of CAP256.SU (HIV-1)
[7] = biological target: HIV-1 Env of DU422.01 (HIV-1)
[8] = biological target: HIV-1 Env of ZM249.1 (HIV-1)
[9] = biological target: HIV-1 Env of MB201 (HIV-1)
[10] = biological target: HIV-1 Env of 0260.v5.c36 (HIV-1)
[11] = biological target: HIV-1 Env of DU172.17 (HIV-1)
[12] = biological target: HIV-1 Env of Q23.17 (HIV-1)
[13] = biological target: HIV-1 Env of Q259.d2.17 (HIV-1)
[14] = biological target: HIV-1 Env of TRO.11 (HIV-1)
[15] = biological target: HIV-1 Env of Q461.e2 (HIV-1)
[16] = biological target: HIV-1 Env of MB539.2B7 (HIV-1)
[17] = biological target: HIV-1 Env of PVO.04 (HIV-1)
[18] = biological target: HIV-1 Env of CAP244.D3 (HIV-1)
[19] = biological target: HIV-1 Env of RHPA.7 (HIV-1)
[20] = biological target: HIV-1 Env of KER2008.12 (HIV-1)
[21] = biological target: HIV-1 Env of C1080.c3 (HIV-1)
[22] = biological target: HIV-1 Env of CAP210.E8 (HIV-1)
[23] = biological target: HIV-1 Env of WITO.33 (HIV-1)
[24] = biological target: HIV-1 Env of ZM109.4 (HIV-1)
[25] = biological target: HIV-1 Env of 6535.3 (HIV-1)
[26] = biological target: HIV-1 Env of 6405.v4.c34 (HIV-1)
[27] = biological target: HIV-1 Env of ZM197.7 (HIV-1)
[28] = biological target: HIV-1 Env of CAP256.PI (HIV-1)
[29] = biological target: HIV-1 Env of BG505.w6m (HIV-1)
[30] = biological target: HIV-1 Env of CM244.ec1 (HIV-1)
[31] = biological target: HIV-1 Env of CNE3 (HIV-1)
[32] = biological target: HIV-1 Env of REJO.67 (HIV-1)
[33] = biological target: HIV-1 Env of SC422.8 (HIV-1)
[34] = biological target: HIV-1 Env of 96ZM651.02 (HIV-1)
[35] = biological target: HIV-1 Env of Q842.d12 (HIV-1)
[36] = biological target: HIV-1 Env of ZM214.15 (HIV-1)
[37] = biological target: HIV-1 Env of CAP45.G3 (HIV-1)
[38] = biological target: HIV-1 Env of 191821.E6.1 (HIV-1)
[39] = biological target: HIV-1 Env of TH976.17 (HIV-1)
[40] = biological target: HIV-1 Env of UG037.8 (HIV-1)
[41] = biological target: HIV-1 Env of 3016.V5.c36 (HIV-1)
[42] = biological target: HIV-1 Env of ZM135.10a (HIV-1)
[43] = biological target: HIV-1 Env of ZM53.12 (HIV-1)
[44] = biological target: HIV-1 Env of ZM233.6 (HIV-1)
[45] = biological target: HIV-1 Env of CAAN.A2 (HIV-1)
[46] = biological target: HIV-1 Env of QH0692.42 (HIV-1)
[47] = biological target: HIV-1 Env of TRJO.58 (HIV-1)
[48] = biological target: HIV-1 Env of THRO.18 (HIV-1)
[49] = biological target: HIV-1 Env of DU156.12 (HIV-1)

CAP256-VRC26.21 (antibody)
0.005 µg/mL: IC50 [22]
0.003 µg/mL: IC50 [43]
26.5 µg/mL: IC50 [44]
25.4 µg/mL: IC50 [13]
0.06 µg/mL: IC50 [5]
1.1 µg/mL: IC50 [7]
0.002 µg/mL: IC50 [6]
> 50 µg/mL: IC50 [1] | IC50 [2] | IC50 [3] | IC50 [4] | IC50 [8] | IC50 [9] | IC50 [10] | IC50 [11] | IC50 [12] | IC50 [14] | IC50 [15] | IC50 [16] | IC50 [17] | IC50 [18] | IC50 [19] | IC50 [20] | IC50 [21] | IC50 [23] | IC50 [24] | IC50 [25] | IC50 [26] | IC50 [27] | IC50 [28] | IC50 [29] | IC50 [30] | IC50 (neutralization, TZM-bl) [31] | IC50 [32] | IC50 [33] | IC50 [34] | IC50 [35] | IC50 [36] | IC50 [37] | IC50 [38] | IC50 (neutralization, TZM-bl) [39] | IC50 [40] | IC50 [41] | IC50 [42] | IC50 [45] | IC50 [46] | IC50 [47] | IC50 [48] | IC50 [49]

CAP256-VRC26.17 (antibody)
0.011 µg/mL: IC50 [41]
18.7 µg/mL: IC50 [49]
> 50 µg/mL: IC50 [1] | IC50 [2] | IC50 [3] | IC50 [4] | IC50 [9] | IC50 [10] | IC50 [11] | IC50 [14] | IC50 [15] | IC50 [16] | IC50 [17] | IC50 [18] | IC50 [19] | IC50 [20] | IC50 [21] | IC50 [23] | IC50 [24] | IC50 [25] | IC50 [26] | IC50 [28] | IC50 [31] | IC50 [32] | IC50 [33] | IC50 [34] | IC50 [35] | IC50 [36] | IC50 [37] | IC50 [39] | IC50 [40] | IC50 [42] | IC50 [45] | IC50 [46] | IC50 [47] | IC50 [48]
0.14 µg/mL: IC50 [30]
35.4 µg/mL: IC50 [38]
0.4 µg/mL: IC50 [29]
2.2 µg/mL: IC50 [27]
0.076 µg/mL: IC50 [13]
1.23 µg/mL: IC50 [8]
0.006 µg/mL: IC50 [22] | IC50 [44]
0.064 µg/mL: IC50 [5]
6.42 µg/mL: IC50 [12]
0.005 µg/mL: IC50 [43]
0.51 µg/mL: IC50 [7]
0.003 µg/mL: IC50 [6]

CAP256-VRC26.16 (antibody)
5.78 µg/mL: IC50 [13]
45 µg/mL: IC50 [8]
0.82 µg/mL: IC50 [38]
0.67 µg/mL: IC50 [30]
0.36 µg/mL: IC50 [29]
0.006 µg/mL: IC50 [43]
0.031 µg/mL: IC50 [44]
2.21 µg/mL: IC50 [27]
5.9 µg/mL: IC50 [21]
48.7 µg/mL: IC50 [49]
0.004 µg/mL: IC50 [6]
> 50 µg/mL: IC50 [1] | IC50 [2] | IC50 [3] | IC50 [4] | IC50 [9] | IC50 [10] | IC50 [11] | IC50 [12] | IC50 [14] | IC50 [15] | IC50 [16] | IC50 [17] | IC50 [18] | IC50 [19] | IC50 [20] | IC50 [23] | IC50 [24] | IC50 [25] | IC50 [26] | IC50 [28] | IC50 [31] | IC50 [32] | IC50 [33] | IC50 [34] | IC50 [35] | IC50 [36] | IC50 [37] | IC50 [39] | IC50 [40] | IC50 [42] | IC50 [45] | IC50 [46] | IC50 [47] | IC50 [48]
0.062 µg/mL: IC50 [5]
3.9 µg/mL: IC50 [7]
0.012 µg/mL: IC50 [41]
0.009 µg/mL: IC50 [22]

CAP256-VRC26.22 (antibody)
0.005 µg/mL: IC50 [13]
0.09 µg/mL: IC50 [27]
0.002 µg/mL: IC50 [5] | IC50 [6] | IC50 [43]
0.035 µg/mL: IC50 [29]
0.007 µg/mL: IC50 [4]
0.022 µg/mL: IC50 [41]
0.001 µg/mL: IC50 [44]
0.006 µg/mL: IC50 [12]
4.1 µg/mL: IC50 [15]
1.4 µg/mL: IC50 [37]
0.63 µg/mL: IC50 [35]
1.23 µg/mL: IC50 [20]
2.12 µg/mL: IC50 [38]
> 50 µg/mL: IC50 [1] | IC50 [2] | IC50 [3] | IC50 [9] | IC50 [10] | IC50 [11] | IC50 [14] | IC50 [18] | IC50 [19] | IC50 [23] | IC50 [24] | IC50 [25] | IC50 [26] | IC50 [28] | IC50 (neutralization, TZM-bl) [31] | IC50 [32] | IC50 [33] | IC50 [34] | IC50 [36] | IC50 (neutralization, TZM-bl) [39] | IC50 [40] | IC50 [42] | IC50 [45] | IC50 [46] | IC50 [47] | IC50 [48]
0.012 µg/mL: IC50 [7]
0.13 µg/mL: IC50 [8]
0.003 µg/mL: IC50 [22]
0.15 µg/mL: IC50 [49]
4.54 µg/mL: IC50 [30]
9.03 µg/mL: IC50 [17]
0.013 µg/mL: IC50 [21]
17.9 µg/mL: IC50 [16]

CAP256-VRC26.20 (antibody)
> 50 µg/mL: IC50 [1] | IC50 [2] | IC50 [3] | IC50 [4] | IC50 [5] | IC50 [6] | IC50 [7] | IC50 [8] | IC50 [9] | IC50 [10] | IC50 [11] | IC50 [12] | IC50 [13] | IC50 [14] | IC50 [15] | IC50 [16] | IC50 [17] | IC50 [18] | IC50 [19] | IC50 [20] | IC50 [21] | IC50 [22] | IC50 [23] | IC50 [24] | IC50 [25] | IC50 [26] | IC50 [27] | IC50 [28] | IC50 [29] | IC50 [30] | IC50 (neutralization, TZM-bl) [31] | IC50 [32] | IC50 [33] | IC50 [34] | IC50 [35] | IC50 [36] | IC50 [37] | IC50 [38] | IC50 (neutralization, TZM-bl) [39] | IC50 [40] | IC50 [41] | IC50 [42] | IC50 [44] | IC50 [45] | IC50 [46] | IC50 [47] | IC50 [48] | IC50 [49]
1.87 µg/mL: IC50 [43]
